# Test: yeast display, Sf9 membrane polyspecificity reagent, FACS + sequencing; frameworks hold sequencing errors
# Method in brief: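 Nanobodies came from a synthetic yeast display library in Saccharomyces cerevisiae BJ5465, induced with galactose for 36–48 hours and stained for 1 hour at 4 °C with 10% biotinylated, detergent-solubilized Sf9 membrane reagent. Cells were enriched on streptavidin microbeads and then FACS-sorted, with low and high (top ~1%) gates set on anti-HA fluorescence for expression and streptavidin fluorescence for reagent binding. Each polyreactivity label reflects the gate a clone came from. Genes were amplified by colony PCR, sequenced by MiSeq 2 × 250 and filtered by CDR length.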
row,Sequence,polyreactivity (PSR sort gate)
1,QVQLVESGGGLVQAGGSLRLSCAASGRIFGTNAMGWYRQAPGKESELVATITRGGGNTYYADSVKGRFTISRDNAKNTVYLQMNSLKQEDTAVYYCNTRRLHGWLYGYEYWGQGTQVTVSS,low polyreactivity
2,QVQLVESGGGLVQAGGSLRLSCAASRSIFGYNAMGWYRPAPGKEREFVAAIRWSSGSTYYADSVKGRFTISRDNAKNTVYLQMNSLKPEDTAVYYCATRQTYLYLGQGTQVTVSS,high polyreactivity
3,QVQLEESGGGLVKAGGSLSLSCAASGRTFYSYAMGWYRQAPGKERELVAAISAGGSTYYADSVQGRFTSSRDNAMNTLNLQMTSLKPEDTAVYYCAATYSYYYARYHYWGQGTQVTVSS,high polyreactivity
4,QVQLVQSAAGLVHAGGSLRLSCAASGIIFYGYAMVSYRQAPGKERELVAAITSYDGSTYYADSVKGRFTISRDNAKNTVYLQMNSLKPEDTAEYYCAADYSTYEGWYWFDYWGQGSQVTVSS,high polyreactivity
5,QVQLVESGGGLVQAGGSLSLSSAASGRTFTFNTMGWYRQAPGKERELVAAIDGDGTTNYADSVKGRFTISRDNAKYTVYLQMNSLKPEDTAVYYCAADFLYSFWYEPTFDYWGQGTQVTVSS,low polyreactivity
6,QVQLVESGGGLVQAGGSHRLSCSASGRIFARNVMGWYRQAPGKERELVAAITYSGGRTYYADSVKGRFTISRDNAKNTVYLQMNSLKPEDTAVYYCNAKSFSPPGYRGFDYWGQGTQVTVSS,low polyreactivity
7,QVQLVESGGGLVQAGGSLRLSCAASGSTFGYYAMGWYRQAPGKERELVAGITSGGSTYYADSVKGRFTISRDNAKNTVYLQMNSLKPEDTAVYYCAKPVRHYRGRYFKYDYWGQGTQVTVSS,high polyreactivity
8,QVQLVESGGGLVQAGGSLRLSCAASGRTFKKYAMGWYRQAPGKERELVAAITGSGGSTYYADSVKGRFTISRDNAKNTVYLQMNSLKPEDTAVYYCAAEVVAQMNYWGQGTQVTVSS,low polyreactivity
9,QVQLVESGGGLVQAGGTLRLSCAASGRIFPAYVMGWYRQAPGKERELVATIDNGGGTYYADSVKGRFTISRDNAKNTVYLQMNSLKPEDTAVYYCARDRHVRWGLKMDYWGQGTQVTVSS,low polyreactivity
10,QVQLVESGGGLVQAGGSLRLSCAASGSIFTVYAMGWYRQAPGKERELVAAISSSGGTTYYADSVKGRFTISRDNAKNTVYLQMTSLKPEDTAVYYCAAPTHSPYDYWGQGTQVTVSS,low polyreactivity
11,QVQLVESGGGLVQAGGSLRLSCAASGYTFGKYAMGWYRQAPGKERELVAGISSRGGSTYYADSVKGRFTISRDNAKNTVYLQMNSLKPEDTAVYYCAAVAYTGGPRKLGFNYWGQGTQVSVSS,high polyreactivity
12,QVQLVESGGGLVQAGGSLRLSCAASGRTFRYYAMGWYRQAPGKERELVAAISSSGDRTYYADSVKGRFTISRDNAKNTVYLQMNSLKPEDTAVYYCAADRGARGDYWGQGTQVTVSS,high polyreactivity
13,QVQLVESGGGLVQAGGSLRLSCAACGGTFRSNAMGWYRQAPGKERELVAASTNYADSVKGRFTISRDNAKNTVYLQMNSLKPEDTAVYYCAAGPTDSQTGMDYWGQGTQVTVSS,low polyreactivity
14,QVQLVESGGGLVQAGGSLRLSCAASGRTFISNVMGWYRQAPGKERELVAAIRSSGRTYYADSVKGRFTISRDNAKNTVYFQMNSLKPEDTAVYYCAAPGGLLGSGYWGQGTQVTVSS,low polyreactivity
15,QVQLVESGGGLVQAGGRLRLSCPASGGTFGYNAMGWYRQAPGKERELVAAIRNGGSTYFADSVKGRFTISRDNAKNTVYLQMNSLKPEESAVYYCAAGPRGTGKYYWGQGTQVTVSS,high polyreactivity
16,QVQIVESGGGLVQAAGSLRLTFAASGIIFYIYPMGWYRPAPGKERELVASISFSGTSTYYADSVKGRFTISRDNAKNTVYIQMHSLKPEDTAVYYCAAGARWRRALAVKPYQKYGYWGQGTQVTVSS,low polyreactivity
17,QVQLVESGGGLFQAGGSLRLSCAASGSTFGFYAIGWYRQAPGKERELVARITYSGGSTYYADSVKGRFTISRDNAKITVYLQLNSLIPEDNAVSYCAARSWTHYFRYDYWGQGTQVTVSS,high polyreactivity
18,QVQLVESGGGLVQAGGSLRLSCAASGLTFTHYALGWYRQAPGKERELVAAIAWRGGSTYYADSVKGRFTISRDNAKNTVYLQMNSLKPEDTAVYYCAVARSYRGEMDYWGQGTQVTVSS,low polyreactivity
19,QVQLVESGGGLVQAGGSLRLSCAASGRIFYPYVMGWYRQAPGKERELVAAISASGGRTYYADSVKGRFTISRDNAKNTVYLQMNSLKPEDTAVYYCAAQGWRYYRTVVPMDYWGQGTQVTVSS,low polyreactivity
20,QVQLVESGGGLVQAGGSLRLSCAASGLIFNYYAMGWYRPAPGKERELVAAIYNGGSTYADSVKGRFTISRDNAKNTVYLQMNSLKPEDTAVYYCNTDDPDRDNDVKSIDYDYWGQGTQVTVSS,low polyreactivity
21,QVQLQESGGGLVQAGGSLRLSCAASGYISHADEMGWYRQAPGKEHELVASISNGGSTNYADSVKGRFTIRRDNAKNTVYLQMNSLKSEDTAVYYCAAWTGQVDIHDSWGQRTQVTVSS,low polyreactivity
22,QVQLVESGGGLVQAGGSLRLSCAASGIILYVYGMGWYRQAPGKERELVATITWSDGGTYYADSVKGRFTISRDNAKNTVYLQMNSLKPEDTAVYYCNVVVVNGWVTTPGYDYWGQGTQVTVSS,low polyreactivity

row,Sequence,polyreactivity (PSR sort gate)
1,QVQHVESGGGLVQAGGSLRLSCAASGRIFHYYAMGWYRQAPGKERELVAAINKSGGRTYYADSVKGRFTISRDNAKNTVYLQMNSLKPEDTAVYYCNKRSVPGTYYPTPVRYKYDYWGQGTQVTVSS,high polyreactivity
2,QVQLVESGGGLVQAGGSLRLSCAASGYPFGYYGKGWYRQAPGKERELVAAISRSGGGSTYYADSVKGRFTISRENAKYTVYLQINSLKPEDTAVYYCNVSPGVWRSIPLYYNLRYGYWGQGTQVTVSS,low polyreactivity
3,QVQLVESGGGLVQAGGSLRLSCAASGLTFDVYAMGWYRQAPGKERELVAAISSIGGSTYYADSVKGRFTISRDNAKNTVYLQMNSLKPEDTAVYYCAAAISLYSYDYWGQGTQVTVSS,low polyreactivity
4,QVQLVESGGGLVQAGGSLRLSCAASGRTFSGYAMGWYRQAPGKERELVAAITRRGGTTYYADSVKGRFTISRDNAKNTVYLQMNSLKPEDTAVYYCAAAKPRVISQNIIYDYWGQGTQVTVSS,high polyreactivity
5,QVQLVESGGGLVQAGGSLRLSCAASGSTFSGYAMGWYRQAPGKERELVAAISWSGGRTYYADSVKGRFTISRDNAKNTVYLQMNSLKPEDTAVYYCAAVRKSAYEYWGQGTQVTVSS,high polyreactivity
6,QVQLVESGRGLVQAGGSLRLSCAASGSTFDANAMGWYRQAPGKERELVAAISRSGGNTYYADSVKGRFTISRDNAKNTVYLQMNSLKPEDTAVYYCAADFRNAYYDRLDYWGQGTHVTVSS,low polyreactivity
7,QVQLVESGGGLVQAGGSLRLSCAASGGTFHRYAMGWYRQAPGKERELVAAISGSGASTYYADSVKGRFTISRDNAKNTVYLQMNSLKPEDTAVYYCNALWYYQIGPRGDHWGQGTQVTVSS,high polyreactivity
8,QVQLVESGGGLVQAGGSLRLSCAASGFTFRQYAMGGYGQAPGKEREWVASIRNGGSTNYADSVKGRFTISRDNAKNTDYFQMITLKPEDTALYYCSQRHSRTNMYYWGQGTQVTVSS,high polyreactivity
9,QVQLVESGGGLVQAGGSLRLSCAASGSIFYYYAMGWYRQAPGKERELVADITRDCGTTYYADSVKGRFTISRDNAKNTVYLQMNSLKPEDTAVYYCNARSIVFDWSAGRAKMDYWGQGTQVTVSS,low polyreactivity
10,QVQLVESGGGLVQAGGSLRLSCAASGLTIWYYSMGLYRQAPGKEREFVAAITSRGGDTNYADSVKGRFTISRDNAKNTVYLQMNSLKPEDTAVYYCAVRPRYYGTYRYYYWGQGTQVTVSS,high polyreactivity
11,QVQLVESGGGLVQAGGSLRLSCAASGRTFAYYAMGWYRQAPGTERELVAGITYSGGRTYYADSVKGRFTISRDNAKNTVYLQMNSLKPEDTAVYYCATRWPSKPTSRAMYYWGQGTQVTVSS,high polyreactivity
12,QVQLVESGGGLVQAGGSLRLSCAASGNIFGIYTMGWYRQAPGKEREFFAVISLSGTSTYYADSVKGRFTISRDNAKNTVYLQMNSLKPEDTAVYYCNARTPHNKGRRRAYDYWGLGTQVTVSS,high polyreactivity
13,QVQLVESGGGLVQAGGSLRLSCAASGSTLNSYAMGLYRQAPGKDRELVAAISWSGGSTYYADSVKGRFSISRDNAKNTVYLQMNSVKAEDTAVYYCNAAFWWDYAYGVDYWGQGTQVTVSS,low polyreactivity
14,QVQLVESGGGLVQAGGSLRLSCAASGITLYGNAMGWYRQAPGKEREFVAAISRSGDRTYYADSVKGRFTISRDNAKNTVYLPMYSLKPEDTAVYSCARDYRSYTGSYDTSYDYWGQGTQVTVSS,high polyreactivity
15,QVQLVESGGGLVQAGGSLRLSCAASGRTFQPNVMGLFRQEPGKESELVAAISWSGASTYYADSVKGRFTISRDNAKNTVYLQMNSLKPEDTSVYYCAAEFPFPPACDYWGQGTQVTVSS,low polyreactivity
16,QVQLVESGGGLVQAGGSLRLSCAASGSIFVYNVMGWYRQAPGKERELVAAISKTAGRTYYEDSVKGRFTISRDNAKNTVYLQMNSLKPEDTAVYYFAVGNKRDAYYQYSSYGYWGQGTQVTVSS,low polyreactivity
17,QVQLVESGGGLVQAGGSLRLSCAASGFTFANNAMGWYRQAPGKERELVAAISWNGGSTFYADSVKGRFTISRDNAKNTVYLQMNSLKPEDTAVYYCNTVASYYRWKSYYYWGQGTQVTVSS,high polyreactivity
18,QVQLVESCGGLVQAGGSLRLSCAASGIIFGVYALGWYRQAPGKERELVAAIDGNGSSTSYADSVKGRFSISRDNAKNTVYLQINSLKPEDTAVYYCAAGYWYYLYYCYDFDYWGQGTQVTVSS,low polyreactivity
19,QVQLVESAAGLVQAGGSLRLSCAASGSTFAGNAMGWYRQAPGKERELVAAIDSSTGSTYYADSVKGRFTISRDNAKNTVYLQMNSLKPEDTAVYYCNKTSFLVKLDYWGQGTQVTVSS,low polyreactivity
20,QVQLVESGGGLVQAGGSLRLSCAASGRIFKRYAMGWYRQAPGKERELVAAISRGGSTNYADSVKGRFTISRDNAKNTVYLQMNSLKPEDTAVYYCAVQSGYSGSSQPVRYDYWGQGTQVTVSS,high polyreactivity
21,QVQLVESGGGLVQAGGSLRLSCAASGSTFNYNAMGWYRQAPGKERELVAAISSGASTNYADSVKGRFTISRDNAKNTVYLQMNSLKPEDTAVYYCAARSRTPGWYSTISRKMYWGQGTQVTVSS,high polyreactivity

# Source: the nanobody polyreactivity screen of Harvey et al. (2022)
